In patent US20170022553, “NUCLEIC ACID SEQUENCING METHODS AND SYSTEMS” (OMNIOME, INC., published 2017):
Changes are numbered by the printed parent chain. Names may count otherwise.

Key:
[1] = molecular target: T1, Bsu DNA polymerase I large fragment (Bacillus subtilis, UniProt O34996 O34996:297-880); test: BLI; correct dNTP, Ni(II), 200 mM KCl, 200 mM K glutamate, 30 C; conditions: tags: New England Biolabs M0330L; label: 5' biotin on template; primed template with 5' template overhang
Protocol: Primer-template duplex was diluted (100 nM) into Annealing Buffer. Wash buffer was 20 mM Tris, pH 8.0, 200 mM KCl, 200 mM potassium glutamate, 0.01% (v/v), Tween-20, 100 μg/mL bovine serum albumin, 1.0 mM dithiothreitol. Binding Buffer was Wash Buffer containing 2.0 mM Ni(II)SO₄. Reaction Buffer was 20 mM Tris, pH 8.0, 50 mM KCl, MgCl₂ (10 mM), 0.01% (v/v) Tween-20, 100 μg/mL bovine serum albumin, 1.0 mM dithiothreitol. EDTA Wash Buffer was Binding Buffer containing 1.0 mM EDTA. Buffer containing Primer-Template (PT), Binding buffer containing one dNTP and Reaction Buffer were loaded (200 μL/well) into a Greiner 96-well black microplate (Sigma-Aldrich, St. Louis, Mo.; catalog number M9685), and PCR-grade mineral oil (Sigma-Aldrich, St. Louis, Mo.; catalog no. M8662) was applied (75 μL/well). High-precision streptavidin biosensors (Pall ForteBio Corp., Menlo Park, Calif.; catalog number 18-5117) were re-hydrated in Annealing Buffer for approximately 10 minutes before use. The Octet QK biosensor system (Pall ForteBio Corp., Menlo Park, Calif.) was set for 30° C. operation and was programmed to coat the biosensors with Primer-Template and wash away unbound Primer-Template with Wash Buffer. […]

[2] = molecular target: T1, Bsu DNA polymerase I large fragment; test: BLI; dGTP, 1 mM Ni(II), 30 C; highest amplitude; conditions: tags: New England Biolabs M0330L; label: 5' biotin on template; primed template with 5' template overhang
Protocol: (§1) Primer-template duplex was diluted (100 nM) into Annealing Buffer. Wash buffer was 30 mM Tris, pH 8.0, 160 mM KCl, 160 mM potassium glutamate, 0.01% (v/v), Tween-20, 100 μg/mL bovine serum albumin, 1.0 mM dithiothreitol. Binding Buffer was Wash Buffer containing Bsu Pol I (68 Unit/mL) 100 μM dGTP+1.0 mM Ni(II)SO₄. Reaction Buffer was Wash Buffer containing Bsu (1 U/mL), MgCl₂ (80 μM), dGTP (28.1 μM), α-S-dGTP (162 μM). EDTA Wash Buffer was Wash Buffer without Ni(II)SO₄ but containing 1.0 mM EDTA. Buffer containing Primer-Template (PT), Binding Buffer and Reaction Buffer containing were loaded (200 μL/well) into a Greiner 96-well black microplate (Sigma-Aldrich, St. Louis, Mo.; catalog number M9685), and PCR-grade mineral oil (Sigma-Aldrich, St. Louis, Mo.; catalog no. M8662) was applied (75 μL/well). […]
(§2) In assays for binding to biosensor coated with ssDNA primer-template, Bsu Pol I enzyme bound strongly to the primer/template-coated biosensor in the presence of correct dGTP (FIGS. 18A and 18B). […] The association phase for formation of the ternary complex was analyzed for how the association kinetic parameters may be affected by the number of nucleotides for incorporation into the homopolymer of the primer/template.

[3] = molecular target: T1, Bsu DNA polymerase I large fragment; test: BLI; dGTP, 1 mM Ni(II), 30 C; lower amplitude, higher kobs than ALK-G1; conditions: tags: New England Biolabs M0330L; label: 5' biotin on template; primed template with 5' template overhang
Protocol: as §1, §2

[4] = molecular target: Bst DNA polymerase, full length (Bacillus stearothermophilus, UniProt P52026 P52026:1-876); test: BLI; correct dNTP, 300 mM KCl, 30 C; minimal binding without dNTP; conditions: tags: New England Biolabs M0328L; label: 5' biotin on template; primed template with 5' template overhang
Protocol: Primer-template duplex was diluted (100 μM) into Annealing Buffer. Binding buffer was 50 mM Tris, pH 8.0, 300 mM KCl, 0.1% (v/v) Triton-X100, 100 μg/mL bovine serum albumin. Reaction Buffer was Binding Buffer containing 10 mM MgCl₂. Buffer containing Primer-Template (PT), Binding buffer containing one dNTP, and Reaction Buffer were loaded (200 μL/well) into a Greiner 96-well black microplate (Sigma-Aldrich, St. Louis, Mo.; catalog number M9685), and PCR-grade mineral oil (Sigma-Aldrich, St. Louis, Mo.; catalog no. M8662) was applied (75 μL/well). Streptavidin (SA) Biosensors (Pall ForteBio Corp., Menlo Park, Calif.; catalog number 18-5019) were re-hydrated in Annealing Buffer for approximately 10 minutes before use. The Octet QK biosensor system (Pall ForteBio Corp., Menlo Park, Calif.) was set for 30° C. operation and was programmed to coat the biosensors with Primer-Template and wash away unbound Primer-Template with Binding Buffer. Biosensors were transferred to Binding Buffer containing 136 Unit/mL Bst DNA Polymerase and 200 μM dNTP (dATP, dTTP, dGTP or dCTP) as indicated (association phase) followed by Reaction Buffer for dNTP incorporation. Biosensors were transferred to Reaction Buffer containing Bst DNA Polymerase (136 Unit/mL) without dNTP to promote nick translation via 5′-3′ exonuclease activity. […]

T1 sequence (O34996 297-880, one chain of several): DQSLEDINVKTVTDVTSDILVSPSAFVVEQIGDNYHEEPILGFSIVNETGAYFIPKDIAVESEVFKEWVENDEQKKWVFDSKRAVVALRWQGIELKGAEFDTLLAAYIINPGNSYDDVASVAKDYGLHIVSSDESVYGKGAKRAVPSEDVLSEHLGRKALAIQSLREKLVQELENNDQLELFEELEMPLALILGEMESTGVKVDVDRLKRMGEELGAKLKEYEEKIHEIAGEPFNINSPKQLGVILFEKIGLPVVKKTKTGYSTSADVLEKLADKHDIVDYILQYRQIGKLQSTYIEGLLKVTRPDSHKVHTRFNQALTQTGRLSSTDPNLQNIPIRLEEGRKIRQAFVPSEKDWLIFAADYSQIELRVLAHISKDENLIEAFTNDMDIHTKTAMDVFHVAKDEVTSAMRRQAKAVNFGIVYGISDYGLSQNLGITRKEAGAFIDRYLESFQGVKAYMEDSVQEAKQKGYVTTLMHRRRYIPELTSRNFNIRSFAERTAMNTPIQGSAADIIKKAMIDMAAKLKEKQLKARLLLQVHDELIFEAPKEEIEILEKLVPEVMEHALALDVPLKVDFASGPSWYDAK
Sequence of Bst DNA polymerase, full length (P52026 whole entry, one chain of several): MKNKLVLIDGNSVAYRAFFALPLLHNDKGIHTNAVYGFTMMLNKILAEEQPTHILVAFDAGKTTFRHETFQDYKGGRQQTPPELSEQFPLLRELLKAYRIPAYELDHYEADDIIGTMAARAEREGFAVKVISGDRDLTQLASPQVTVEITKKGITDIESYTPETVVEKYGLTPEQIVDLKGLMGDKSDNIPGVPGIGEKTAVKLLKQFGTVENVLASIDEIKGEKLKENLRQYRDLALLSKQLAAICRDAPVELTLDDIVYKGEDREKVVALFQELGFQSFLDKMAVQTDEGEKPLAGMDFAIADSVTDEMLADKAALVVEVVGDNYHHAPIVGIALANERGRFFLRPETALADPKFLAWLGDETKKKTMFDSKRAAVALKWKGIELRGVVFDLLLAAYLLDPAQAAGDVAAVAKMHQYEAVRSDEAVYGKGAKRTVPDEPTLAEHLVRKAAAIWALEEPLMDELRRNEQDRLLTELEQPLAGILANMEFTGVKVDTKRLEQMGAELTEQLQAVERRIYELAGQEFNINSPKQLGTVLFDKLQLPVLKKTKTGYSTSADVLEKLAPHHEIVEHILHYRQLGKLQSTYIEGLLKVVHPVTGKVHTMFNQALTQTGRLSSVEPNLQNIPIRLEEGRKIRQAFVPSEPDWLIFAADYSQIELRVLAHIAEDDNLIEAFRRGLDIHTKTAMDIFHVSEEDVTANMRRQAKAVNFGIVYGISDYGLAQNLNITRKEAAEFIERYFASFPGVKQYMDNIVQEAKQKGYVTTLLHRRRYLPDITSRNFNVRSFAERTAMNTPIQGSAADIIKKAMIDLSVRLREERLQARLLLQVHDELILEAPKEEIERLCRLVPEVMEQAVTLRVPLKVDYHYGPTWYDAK

B1: ALK C4493A/4496-4509AS primer-template (dsDNA)
DNA 1: GTGAGCCTGCAATCCCTGCCCCGGTTCATCCTGATGGAGCTCATGGCGGG
DNA 2: CCCGCCATGAGCTC
modifications: 3' inverted dT on template
binding result [1]: binds

B2: ALK-G1 primer-template (dsDNA)
DNA 1: B1 DNA 1 with A34C
DNA 2: CCCGCCATGAGCTCCA
modifications: 3' inverted dT on template
binding result [2]: binds

B3: ALK-G2 primer-template (dsDNA)
DNA 1: B1 DNA 1 with A34C
DNA 2: CCCGCCATGAGCTCCAGCA
modifications: 3' inverted dT on template
binding result [3]: binds

B4: ALK-G4 primer-template (dsDNA)
DNA 1: B1 DNA 1 with A34C
DNA 2: CCCGCCATGAGCTCCAGCAGGATGAACC
modifications: 3' inverted dT on template
binding result [3]: binds

B5: ALK wild-type 4460-4509S/4496-4509AS primer-template (dsDNA)
DNA 1: B1 DNA 1 with A34C
DNA 2: CCCGCCATGAGCTC
modifications: 3' inverted dT on template
binding result [4]: binds
